# Measured values as given in patent publication US5985836A, “Alpha-1 proteinase inhibitor binding peptides” (Bayer Corporation, priority 1998, dated 1999).
# Ends that are not written are not given here.
# Tests used:
# Type in all cases: binding
# A1PI [1] = molecular target: T1, A1PI (Homo sapiens, UniProt P01009); assay: Purification of A1PI from Effluent II+III on peptide column, A1PI mass balance; details: 1 ml Eff. II+III, 4° C.; for Mass A1PI per Eluate Fraction, 2% Acetic Acid / Mass A1PI per Eluate Fraction, Flowthrough / Mass A1PI per Eluate Fraction, 1M NaCl: * Below detection limit
# T1 construct: Human plasma is currently the only approved source of therapeutic AlPI
# How it was run: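 Mass balance per protein was determined over the load and each step eluate (1M NaCl, 3M NaCl, 2% acetic acid) of peptide columns challenged with 1 ml Effluent II+III. The feed contained 20% ethanol and 20-25 mg/ml hSA, the flow was 865 μl/min after a 10 min residence, and the temperature was 4° C.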
# A1PI [2] = molecular target: T1, A1PI; assay: A1PI purification from 5 mg hSA + 1 mg A1PI on peptide column, A1PI mass balance; details: for Mass Protein per Eluate Fraction, 1M NaCl / Mass Protein per Eluate Fraction, 2% Acetic Acid / Mass Protein per Eluate Fraction, Flow / Percent Eluted by Fraction, 1M NaCl / Percent Eluted by Fraction, 2% Acetic Acid / Percent Eluted by Fraction, 3M NaCl / Percent Eluted by Fraction, Flow / Mass Protein per Eluate Fraction, 2% Ac. Acid / Mass Protein per Eluate Fraction, 3M NaCl / Percent Eluted by Fraction, 2% Ac. Acid: A1PI, 5 mg hSA + 1 mg A1PI; for Mass Protein per Eluate Fraction, 1M NaCl / Mass Protein per Eluate Fraction, 2% Acetic Acid / Mass Protein per Eluate Fraction, Flow / Mass Protein per Eluate Fraction, 2% Ac. Acid / Mass Protein per Eluate Fraction, 3M NaCl: * Below detection limit; for Mass AlPI Eluted in Acid Eluate: nephelometry
# How it was run: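 Peptides on A-Totda-Toyopearl resin (0.1 mmole/g) in 0.4×5 cm columns; 5 mg hSA + 1 mg A1PI loaded at 4 °C or 20 °C with 10 min residence (17 μl/min). Steps of 1M and 3M NaCl, then 2% acetic acid; fractions quantified by immunonephelometry for mass balance.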
# A1PI [3] = molecular target: T1, A1PI; assay: A1PI yield from dialyzed (aqueous) Effluent II+III; details: 4° C.; for Mass A1PI per Eluate Fraction, 1M NaCl / Mass A1PI per Eluate Fraction, 2% Acetic Acid / Mass A1PI per Eluate Fraction, Flowthrough: 1 ml dialyzed Eff. II+III (ethanol removed); for Percent Eluted by Fraction, 1M NaCl / Percent Eluted by Fraction, 2% Acetic Acid / Percent Eluted by Fraction, Flowthrough: A1PI, 1 ml dialyzed Eff. II+III
# How it was run: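 Effluent II+III was dialyzed at 4° C against equilibration buffer (15,000 MWCO) to remove ethanol. It was then applied under the same binding conditions as neat feed, and A1PI was tracked by nephelometry in the 1M NaCl and acid eluates.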
# [4] = Table 10, 4° C., relative to total loaded
# [5] = Table 10, 20° C., relative to total loaded
# [6] = Table 19, 4° C., relative to total loaded
# [7] = Table 19, 20° C., relative to total loaded
# [8] = A1PI, * as in Tables 4, 5 (below detection limit)
# [9] = 4° C., relative to total eluted
# [10] = 20° C., relative to total eluted
# T1 sequence (P01009 25-418): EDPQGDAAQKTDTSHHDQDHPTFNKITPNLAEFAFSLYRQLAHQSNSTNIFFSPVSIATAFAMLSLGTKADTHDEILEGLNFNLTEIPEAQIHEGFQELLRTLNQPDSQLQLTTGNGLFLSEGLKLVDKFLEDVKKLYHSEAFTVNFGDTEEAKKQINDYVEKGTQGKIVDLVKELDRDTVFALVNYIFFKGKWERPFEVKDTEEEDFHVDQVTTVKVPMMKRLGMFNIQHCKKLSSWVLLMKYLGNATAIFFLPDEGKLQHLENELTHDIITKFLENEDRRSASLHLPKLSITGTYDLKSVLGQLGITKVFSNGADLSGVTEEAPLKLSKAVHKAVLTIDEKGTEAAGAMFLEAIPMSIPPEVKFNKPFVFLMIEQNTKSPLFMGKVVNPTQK
substance,measurement,setting,value
VIFLVR,"Mass A1PI per Eluate Fraction, 2% Acetic Acid",A1PI [1]; Table 11,0.57 mg
same,"Mass A1PI per Eluate Fraction, Flowthrough",A1PI [1]; Table 11,0.13 mg
same,"Percent Eluted by Fraction, 1M NaCl","A1PI [1]; Table 11, A1PI",0%
same,"Percent Eluted by Fraction, 2% Acetic Acid","A1PI [1]; Table 11, A1PI",82%
same,"Percent Eluted by Fraction, Flowthrough","A1PI [1]; Table 11, A1PI",18%
same,"Mass A1PI per Eluate Fraction, 1M NaCl",A1PI [1]; Table 13,0.07 mg
same,"Mass A1PI per Eluate Fraction, 2% Acetic Acid",A1PI [1]; Table 13,0.91 mg
same,"Mass A1PI per Eluate Fraction, Flowthrough",A1PI [1]; Table 13,0.32 mg
same,"Percent Eluted by Fraction, 1M NaCl","A1PI [1]; Table 13, A1PI",5%
same,"Percent Eluted by Fraction, 2% Acetic Acid","A1PI [1]; Table 13, A1PI",70%
same,"Percent Eluted by Fraction, Flowthrough","A1PI [1]; Table 13, A1PI",25%
same,"Mass Protein per Eluate Fraction, 1M NaCl","A1PI [2]; Table 10, 4° C.",0.05 mg
same,"Mass Protein per Eluate Fraction, 2% Acetic Acid","A1PI [2]; Table 10, 4° C.",0.61 mg
same,"Mass Protein per Eluate Fraction, Flow","A1PI [2]; Table 10, 4° C.",0.13 mg
same,"Percent Eluted by Fraction, 1M NaCl",A1PI [2]; [4],7%
same,"Percent Eluted by Fraction, 2% Acetic Acid",A1PI [2]; [4],77%
same,"Percent Eluted by Fraction, 3M NaCl",A1PI [2]; [4],0%
same,"Percent Eluted by Fraction, Flow",A1PI [2]; [4],16%
same,"Mass Protein per Eluate Fraction, 1M NaCl","A1PI [2]; Table 10, 20° C.",0.02 mg
same,"Mass Protein per Eluate Fraction, 2% Acetic Acid","A1PI [2]; Table 10, 20° C.",0.60 mg
same,"Mass Protein per Eluate Fraction, Flow","A1PI [2]; Table 10, 20° C.",0.17 mg
same,"Percent Eluted by Fraction, 1M NaCl",A1PI [2]; [5],2%
same,"Percent Eluted by Fraction, 2% Acetic Acid",A1PI [2]; [5],76%
same,"Percent Eluted by Fraction, 3M NaCl",A1PI [2]; [5],0%
same,"Percent Eluted by Fraction, Flow",A1PI [2]; [5],22%
same,"Mass Protein per Eluate Fraction, 1M NaCl","A1PI [2]; Table 19, 4° C.",0.05 mg
same,"Mass Protein per Eluate Fraction, 2% Acetic Acid","A1PI [2]; Table 19, 4° C.",0.61 mg
same,"Mass Protein per Eluate Fraction, Flow","A1PI [2]; Table 19, 4° C.",0.13 mg
same,"Percent Eluted by Fraction, 2% Acetic Acid",A1PI [2]; [6],77%
same,"Percent Eluted by Fraction, 3M NaCl",A1PI [2]; [6],0%
same,"Percent Eluted by Fraction, Flow",A1PI [2]; [6],16%
same,"Mass Protein per Eluate Fraction, 1M NaCl","A1PI [2]; Table 19, 20° C.",0.02 mg
same,"Mass Protein per Eluate Fraction, 2% Acetic Acid","A1PI [2]; Table 19, 20° C.",0.60 mg
same,"Mass Protein per Eluate Fraction, Flow","A1PI [2]; Table 19, 20° C.",0.17 mg
same,"Percent Eluted by Fraction, 2% Acetic Acid",A1PI [2]; [7],76%
same,"Percent Eluted by Fraction, 3M NaCl",A1PI [2]; [7],0%
same,"Percent Eluted by Fraction, Flow",A1PI [2]; [7],22%
same,"Mass A1PI per Eluate Fraction, 1M NaCl",A1PI [3],0.09 mg
same,"Mass A1PI per Eluate Fraction, 2% Acetic Acid",A1PI [3],0.37 mg
same,"Mass A1PI per Eluate Fraction, Flowthrough",A1PI [3],0.25 mg
same,"Percent Eluted by Fraction, 1M NaCl",A1PI [3],13%
same,"Percent Eluted by Fraction, 2% Acetic Acid",A1PI [3],51%
same,"Percent Eluted by Fraction, Flowthrough",A1PI [3],36%
VIWLVR,"Percent Eluted by Fraction, 1M NaCl",A1PI [1]; A1PI,9%
same,"Percent Eluted by Fraction, 2% Acetic Acid",A1PI [1]; A1PI,43%
same,"Percent Eluted by Fraction, 3M NaCl",A1PI [1]; A1PI,0%
same,"Percent Eluted by Fraction, Flow",A1PI [1]; A1PI,48%
same,"Mass Protein per Eluate Fraction, 1M NaCl",A1PI [1]; [8],0.10 mg
same,"Mass Protein per Eluate Fraction, 2% Acetic Acid",A1PI [1]; [8],0.51 mg
same,"Mass Protein per Eluate Fraction, Flow",A1PI [1]; [8],0.58 mg
same,"Mass A1PI per Eluate Fraction, 1M NaCl",A1PI [1]; Table 11,0.10 mg
same,"Mass A1PI per Eluate Fraction, 2% Acetic Acid",A1PI [1]; Table 11,0.51 mg
same,"Mass A1PI per Eluate Fraction, Flowthrough",A1PI [1]; Table 11,0.58 mg
same,"Percent Eluted by Fraction, 1M NaCl","A1PI [1]; Table 11, A1PI",9%
same,"Percent Eluted by Fraction, 2% Acetic Acid","A1PI [1]; Table 11, A1PI",43%
same,"Percent Eluted by Fraction, Flowthrough","A1PI [1]; Table 11, A1PI",48%
same,Mass AlPI Eluted in Acid Eluate,"A1PI [2]; 250 μg AlPI injected with 5 mg hSA, 20° C.",0.18 mg
same,Mass AlPI Eluted in Acid Eluate,"A1PI [2]; 500 μg AlPI injected with 5 mg hSA, 20° C.",0.48 mg
same,Mass AlPI Eluted in Acid Eluate,"A1PI [2]; 1000 μg AlPI injected with 5 mg hSA, 20° C.",0.70 mg
same,"Mass Protein per Eluate Fraction, 1M NaCl",A1PI [2]; 4° C.,0.20 mg
same,"Mass Protein per Eluate Fraction, 2% Ac. Acid",A1PI [2]; 4° C.,0.27 mg
same,"Mass Protein per Eluate Fraction, 3M NaCl",A1PI [2]; 4° C.,0.01 mg
same,"Mass Protein per Eluate Fraction, Flow",A1PI [2]; 4° C.,0.29 mg
same,"Percent Eluted by Fraction, 1M NaCl",A1PI [2]; [9],26%
same,"Percent Eluted by Fraction, 2% Ac. Acid",A1PI [2]; [9],35%
same,"Percent Eluted by Fraction, 3M NaCl",A1PI [2]; [9],1%
same,"Percent Eluted by Fraction, Flow",A1PI [2]; [9],38%
same,"Mass Protein per Eluate Fraction, 1M NaCl",A1PI [2]; 20° C.,0.08 mg
same,"Mass Protein per Eluate Fraction, 2% Ac. Acid",A1PI [2]; 20° C.,0.65 mg
same,"Mass Protein per Eluate Fraction, 3M NaCl",A1PI [2]; 20° C.,0.02 mg
same,"Mass Protein per Eluate Fraction, Flow",A1PI [2]; 20° C.,0.08 mg
same,"Percent Eluted by Fraction, 1M NaCl",A1PI [2]; [10],9%
same,"Percent Eluted by Fraction, 2% Ac. Acid",A1PI [2]; [10],80%
same,"Percent Eluted by Fraction, 3M NaCl",A1PI [2]; [10],2%
same,"Percent Eluted by Fraction, Flow",A1PI [2]; [10],9%
same,"Mass Protein per Eluate Fraction, 1M NaCl","A1PI [2]; Table 10, 4° C.",0.21 mg
same,"Mass Protein per Eluate Fraction, 2% Acetic Acid","A1PI [2]; Table 10, 4° C.",0.31 mg
same,"Mass Protein per Eluate Fraction, 3M NaCl","A1PI [2]; Table 10, 4° C.",0.03 mg
same,"Mass Protein per Eluate Fraction, Flow","A1PI [2]; Table 10, 4° C.",0.28 mg
same,"Percent Eluted by Fraction, 1M NaCl",A1PI [2]; [4],26%
same,"Percent Eluted by Fraction, 2% Acetic Acid",A1PI [2]; [4],38%
same,"Percent Eluted by Fraction, 3M NaCl",A1PI [2]; [4],4%
same,"Percent Eluted by Fraction, Flow",A1PI [2]; [4],35%
same,"Mass Protein per Eluate Fraction, 1M NaCl","A1PI [2]; Table 10, 20° C.",0.08 mg
same,"Mass Protein per Eluate Fraction, 2% Acetic Acid","A1PI [2]; Table 10, 20° C.",0.65 mg
same,"Mass Protein per Eluate Fraction, 3M NaCl","A1PI [2]; Table 10, 20° C.",0.02 mg
same,"Mass Protein per Eluate Fraction, Flow","A1PI [2]; Table 10, 20° C.",0.08 mg
same,"Percent Eluted by Fraction, 1M NaCl",A1PI [2]; [5],9%
same,"Percent Eluted by Fraction, 2% Acetic Acid",A1PI [2]; [5],80%
same,"Percent Eluted by Fraction, 3M NaCl",A1PI [2]; [5],2%
same,"Percent Eluted by Fraction, Flow",A1PI [2]; [5],9%
same,"Mass A1PI per Eluate Fraction, 1M NaCl",A1PI [3],0.15 mg
same,"Mass A1PI per Eluate Fraction, 2% Acetic Acid",A1PI [3],0.23 mg
same,"Mass A1PI per Eluate Fraction, Flowthrough",A1PI [3],0.24 mg
same,"Percent Eluted by Fraction, 1M NaCl",A1PI [3],24%
same,"Percent Eluted by Fraction, 2% Acetic Acid",A1PI [3],37%
same,"Percent Eluted by Fraction, Flowthrough",A1PI [3],39%
